# Results taken from publication PMC5187420, “Structural insights into ribosomal rescue by Dom34 and Hbs1 at near-atomic resolution” (Nature Communications, 2016).
# T1: Hbs1 (S. cerevisiae, UniProt P32769 1-611)
# T1 construct: Hbs1, S. cerevisiae, eEF1A-like GTPase; N-terminal domain is seen in the map, linker aa 78-140 disordered; source: E. coli BL21 (DE3), purified (Nickel-NTA, size-exclusion chromatography)
# T1 sequence (looked up): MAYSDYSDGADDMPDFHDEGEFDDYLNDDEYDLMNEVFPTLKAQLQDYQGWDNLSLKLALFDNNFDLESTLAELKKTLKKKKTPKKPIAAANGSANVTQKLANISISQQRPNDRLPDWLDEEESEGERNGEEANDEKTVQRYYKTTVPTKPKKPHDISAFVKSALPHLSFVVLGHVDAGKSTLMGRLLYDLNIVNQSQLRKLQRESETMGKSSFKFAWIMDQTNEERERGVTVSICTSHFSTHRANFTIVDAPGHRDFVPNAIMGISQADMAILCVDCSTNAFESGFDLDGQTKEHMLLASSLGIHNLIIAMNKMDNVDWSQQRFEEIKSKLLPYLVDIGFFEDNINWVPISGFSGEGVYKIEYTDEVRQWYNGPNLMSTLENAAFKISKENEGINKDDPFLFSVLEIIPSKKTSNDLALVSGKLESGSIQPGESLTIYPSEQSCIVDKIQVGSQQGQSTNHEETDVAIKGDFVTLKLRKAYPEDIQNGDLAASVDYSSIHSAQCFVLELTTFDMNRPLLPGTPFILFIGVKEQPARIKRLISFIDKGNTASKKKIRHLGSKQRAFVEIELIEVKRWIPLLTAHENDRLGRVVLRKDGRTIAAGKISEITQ
# B1: Dom34 (natural protein, S. cerevisiae)
# chain: MKVISLKKDSFNKGGAVITLLPEDKEDLFTVYQIVDKDDELIFKKKFTSKLDEAGKKKSTDLVKLKIKVISEDFDMKDEYLKYKGVTVTDESGASNVDIPVGKYLSFTLDYVYPFTIIKQNFNKFMQKLLNEACNIEYKSDTAAVVLQEGIAHVCLVTSSSTILKQKIEYSMPKKKRTTDVLKFDEKTEKFYKAIYSAMKKDLNFDKLKTIILCSPGFYAKILMDKIFQYAEEEHNKKILDNKGMFFIAHCSTGYLQGINEVLKNPLYASKLQDTKYSKEIMVMDEFLLHLNKDDDKAWYGEKEVVKAAEYGAISYLLLTDKVLHSDNIAQREEYLKLMDSVESNGGKALVLSTLHSLGEELDQLTGIACILKYPLPDLDEDDGEE
# notes: Dom34, S. cerevisiae; also called Pelota in mammals; source: E. coli BL21 (DE3), purified (Nickel-NTA, size-exclusion chromatography)
# Target: T1, Hbs1
# Experiment: cryo-EM structure; Dom34 and Hbs1 (50 pmol each) pre-incubated with 1 mM GMPPNP in binding buffer (30 mM Hepes pH 7.5), 20 min at 30 °C, then combined with 10 pmol reassociated S. cerevisiae 80S ribosomes programmed with nonstop mRNA and AcPhe-tRNAPhe, 15 min at 30 °C; reconstruction at 3.3 Å
# Conditions: both partners purified
binder,measurement,value
B1,binding result,binds
